Measured values taken from patent publication US20260242488A1 (BIOTHEUS, published 2026).
Positions count from the first letter of the chain named.

Biological target: monkey c-Met (recombinant protein) (monkey)
Test: BLI (ForteBio), antibody on AHQ sensor, monkey c-Met in solution, 1:1 model

B1: anti-c-Met single-arm antibody 22 (antibody, human IgG1, kappa, L234A L235A)
heavy: not shown
light: DIVMTQSPSSVSASVGDRVTITCRASQGISSWLAWYQQKPGKAPKLLIYAASSLQSGVPSKFSGSGSGTEFTLTISSLQPEDFATYFCQQAYGFPLTFGGGTKVEIKRTVAAPSVFIFPPSDEQLKSGTASVVCLLNNFYPREAKVQWKVDNALQSGNSQESVTEQDSKDSTYSLSSTLTLSKADYEKHKVYACEVTHQGLSSPVTKSFNRGEC
chain: not shown
notes: made in Expi-CHO
Kd: 0.019 µM | koff: 0.00259 s⁻¹ | kon: 136000 M⁻¹ s⁻¹

B2: anti-c-Met single-arm antibody 23 (antibody, human IgG1, kappa, L234A L235A)
heavy: not shown
light: DIVMTQSPSSLSASVGDRVTITCRASQSFSDYLNWYRQKPGKAPKLLLFAASSLQSGVPSRFSGSGSGTDFTLTISSLQPEDFATYYCQQSYSPPYTFGQGTKLEIKRTVAAPSVFIFPPSDEQLKSGTASVVCLLNNFYPREAKVQWKVDNALQSGNSQESVTEQDSKDSTYSLSSTLTLSKADYEKHKVYACEVTHQGLSSPVTKSFNRGEC
chain: not shown
notes: made in Expi-CHO
Kd: 0.0265 µM | koff: 0.00151 s⁻¹ | kon: 56900 M⁻¹ s⁻¹

B3: anti-c-Met single-arm antibody 74 (antibody, human IgG1, kappa, L234A L235A)
heavy: not shown
light: B1 light with S30N, K45N, K61R, S65R, E70D, T72S, Q79H, F87Y, Y92K
chain: not shown
notes: made in Expi-CHO
Kd: 0.0097 µM | koff: 0.0026 s⁻¹ | kon: 269000 M⁻¹ s⁻¹

B4: anti-c-Met single-arm antibody 136 (antibody, human IgG1, kappa, L234A L235A)
heavy: not shown
light: B1 light with A51V, K61R, E70D, Y92N, G93S
chain: not shown
notes: made in Expi-CHO
Kd: 0.00116 µM | koff: 0.000426 s⁻¹ | kon: 369000 M⁻¹ s⁻¹

B5: anti-c-Met single-arm antibody 187 (antibody, human IgG1, kappa, L234A L235A)
heavy: not shown
light: B1 light with K45N, S53N, Q55P, K61R, E70V, F87Y, A91S, Y92N, G93S
chain: not shown
notes: made in Expi-CHO
Kd: 0.00292 µM | koff: 0.000947 s⁻¹ | kon: 324000 M⁻¹ s⁻¹

B6: anti-c-Met single-arm antibody 221 (antibody, human IgG1, kappa, L234A L235A)
heavy: not shown
light: EIVLTQSPGTLSLSPGERATLSCRASQSVSSSYLAWYQQKPGQAPRLLIYGPSSRATGIPDRFSGSGSGTDFTLTISSLQPADFASYYCQQSYITPYTFGQGTKVEIKRTVAAPSVFIFPPSDEQLKSGTASVVCLLNNFYPREAKVQWKVDNALQSGNSQESVTEQDSKDSTYSLSSTLTLSKADYEKHKVYACEVTHQGLSSPVTKSFNRGEC
chain: not shown
notes: made in Expi-CHO
Kd: 0.0638 µM | koff: 0.00192 s⁻¹ | kon: 30100 M⁻¹ s⁻¹

B7: anti-c-Met single-arm antibody 223 (antibody, human IgG1, kappa, L234A L235A)
heavy: not shown
light: DIQLTQSPSSLSASVGDRVTITCRASQSIITYLNWYQQKPGKAPKLLIYAASSLQSGVPSRFSGSGSGTDFTLNISSLQPEDFATYYCQQANSLPYTFGQGTKVEIKRTVAAPSVFIFPPSDEQLKSGTASVVCLLNNFYPREAKVQWKVDNALQSGNSQESVTEQDSKDSTYSLSSTLTLSKADYEKHKVYACEVTHQGLSSPVTKSFNRGEC
chain: not shown
notes: made in Expi-CHO
Kd: 0.0162 µM | koff: 0.00109 s⁻¹ | kon: 67300 M⁻¹ s⁻¹
